These results are taken from the supplement of paper PMC9170038.

Data set [1] has as its system MS2 coat protein. Description: apparent KD of MS2 coat protein, switch ON state; designed switch direction (-1 OFF switch, 1 ON switch): -1; higher = weaker reporter binding. Conditions: FMN input: 0 or 200 uM; Eterna round: R93 (includes R88 designs). The gist of the method:
(§1)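 Apparent KD was obtained for each design as the median of normalised binding-curve fits over its clusters. RNA switches transcribed on-chip from Illumina sequencing clusters were titrated with SNAP-549-labelled MS2 coat protein (twofold steps, 0.7 or 1.5 nM to 3 µM) in 100 mM Tris-HCl pH 7.5, 80 mM KCl, 4 mM MgCl2, without or with constant ligand.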

In data set [2] the test system is MS2 coat protein. As to the kind of experiment: apparent KD of MS2 coat protein, switch OFF state (with FMN for OFF switches, without FMN for ON switches); designed switch direction (-1 OFF switch, 1 ON switch): -1; higher = weaker reporter binding. As to conditions: FMN input: 0 or 200 uM; Eterna round: R93 (includes R88 designs). The gist of the method:
as §1

With “AAAACUGGAGGAUAUACAUGAGGAUCACCCAUGUGUGGGUGGGCUGUGUCGGCGUCAGGUAGAAGGCCACAAAA [Gilly Gone Silly 33 - Jieux - Exclusion 3]”, the “apparent KD of MS2 coat protein” value with MS2 coat protein [1] was determined as 201 nM; in the data set with MS2 coat protein [2] it was 108 nM.
For “AAAAGGUGAGGAUAUAGGAAAAUAAAAUAAAAUAAAAUAAACUAGAAGGCACAUGAGGAUCACCCAUGUAAUAA [LROPPY Exclusion 4 - v03_deltaG=3.54 break up the As]” the same measures were 25.1 nM and 17 nM.
Turning to “AAAAGGUGAGGAUAUAUGAAAAAAAAAAAAAAAAAAAAAAAAUAGAAGGCACAUGAGGAUCACCCAUGUAAAAA [LROPPY Exclusion 4 - v04_ on a whim]”, the “apparent KD of MS2 coat protein” value in the data set on MS2 coat protein [1] is 36.9 nM; with MS2 coat protein [2], 27.2 nM.
For “AAAAGUGGAGGAUAUACAUGAGGAUCACCCAUGUGUAAAAAUAAAUACACAAAAGAAAGUAGAAGGCCACAAAG [Mat - Exclusion 3 - Mayanna mod - D117]” the same measures were 32.2 nM and 128 nM.
Consider “AAAAUGUCAGGAUAUGUAGCAAAAGGUGAUCAAAAAAAGCUACAGAAGGGACAUGAGGAUCACCCAUGUAAAAA [Ex4: 935]”, for which the figures for the “apparent KD of MS2 coat protein” value in the data set on MS2 coat protein [1] and in the data set on MS2 coat protein [2] were 1020 nM and 2870 nM, respectively.
Regarding “AAACCACAUGAGGAUCACCCAUGUGAGGAUAUGAACGAAAAUAAAUAAAAAUAAAAGUUCAGAAGGCACAAAAA [66%, Wbt, 12]”, the “apparent KD of MS2 coat protein” value in the data set with MS2 coat protein [1] worked out at 21.3 nM; with MS2 coat protein [2], 23.6 nM.
For “AAACUACUAGGAUAUACAACGGUGUCCUAACUACUAAGAAGACAUGAGGAUCACCCAUGUAGAAGGAGUAGUGA [Sosogeen]” the same measures were 50.3 nM and 37.8 nM.
For the sequence “AAAGAUGCAGGAUAUACAUGAGGAUCACCCAUGUUAGACCUGAAAAGGGAAAAAGAAAGUAGAAGGGCAUAAAA [Ex 3 May 32]”, the “apparent KD of MS2 coat protein” value with MS2 coat protein [1] worked out at 13.4 nM; in the data set on MS2 coat protein [2], 17 nM.
On to “AAAGAUGGAGGAUAUACAUGAGGAUCACCCAUGUAGAAAAAAAAUUGGGAAAAAGAAAGUAGAAGGCCAAAAAA [Ex 3 May 43]”, for which the “apparent KD of MS2 coat protein” value came to 38.7 nM in the data set with MS2 coat protein [1] and 72.9 nM in the data set on MS2 coat protein [2].
For “AAAGGACGAGGAUAUACAUGAGGAUCACCCAUGUAAAAAACGUAAUAAAAUAACUUAUGUAGAAGGCGUCCAAA [Mat - Exclusion 3 - Eli mod - D98]”, the results for the “apparent KD of MS2 coat protein” value in the data set on MS2 coat protein [1] and with MS2 coat protein [2] were 26.3 nM and 214 nM, respectively.
As for “AAAGGACGAGGAUAUACAUGAGGAUCACCCAUGUAAAAAGCAUAAUAAAAGAACUUAUGUAGAAGGCGUCCAAA [69%, Moding Meechl, 5]”, the results for the “apparent KD of MS2 coat protein” value in the data set with MS2 coat protein [1] and in the data set with MS2 coat protein [2] were 41 nM and 189 nM, respectively.
The corresponding values for “AAAGUGUGAGGAUAUGUCAAAGGUCACGAAAGUGACAAAGGACAGAAGGUACAUGAGGAUCACCCAUGUAAAAA [65% + different segment]” are 39.8 nM and 32 nM.
On to “AAAUAGCAAGGAUAUACAUGAGGAUCACCCAUGUGACCCAGGUAUGGCAUAGACUAGAGUAGAAGGUGCAAAUA [Mod 5 of Ex 3 Tesla 8 - Jieux - Exclusion 3]”, for which the “apparent KD of MS2 coat protein” value with MS2 coat protein [1] is 88.1 nM; in the data set on MS2 coat protein [2], 114 nM.
With “AAAUGACAUGAGGAUCACCCAUGUCAGGAUAUGACUUGAAAAAAAAAAAAAAAACAUGUCAGAAGGGACAUGAA [Design 48: Sub-opt E]”, the “apparent KD of MS2 coat protein” value in the data set on MS2 coat protein [1] was 17.2 nM; in the data set with MS2 coat protein [2], 16.8 nM.
As for “AAAUGCUGAGGAUAUACAUGAGGAUCACCCAUGUAAAAUAAAUAAUGGAUGUAAACGUGUAGAAGGCAGCAUAA [Exclusion 3.14b (FMN+ favored )]”, the results for the “apparent KD of MS2 coat protein” value in the data set on MS2 coat protein [1] and in the data set on MS2 coat protein [2] were 79.6 nM and 23 nM, respectively.
Take “AAAUUAGGAGGAUAUACAUGAGGAUCACCCAUGUGACGAUGUUACUGCAUGAAGCCAAGUAGAAGGUCUAAGAA [Lacelaatdi]”: the “apparent KD of MS2 coat protein” value in the data set on MS2 coat protein [1] was 24.7 nM; with MS2 coat protein [2], 49.5 nM.
